Columns and labels:
[1] = target: human serum amyloid P component (SAP) (human) (UniProt P02743); assay: Biacore; isolated pure SAP alone immobilised on the chip
[2] = target: human serum amyloid P component (SAP) (human) (UniProt P02743); assay: IRMA; SAP alone covalently immobilised; in EDTA; radiolabelled sheep anti-mouse IgG; mean n=3
[3] = target: human serum amyloid P component (SAP) (human) (UniProt P02743); assay: IRMA; SAP non-covalently immobilised; antibody at 1 µg/ml; radiolabelled sheep anti-mouse IgG2a
[4] = target: human serum amyloid P component (SAP) (human) (UniProt P02743); assay: IRMA; SAP alone covalently immobilised; in calcium; radiolabelled sheep anti-mouse IgG; mean n=3
[5] = target: human serum amyloid P component (SAP) (human) (UniProt P02743); assay: IRMA; SAP non-covalently immobilised; antibody at 10 µg/ml; radiolabelled sheep anti-mouse IgG2a
[6] = target: human serum amyloid P component (SAP) (human) (UniProt P02743); assay: IRMA; SAP non-covalently immobilised; antibody at 0.1 µg/ml; radiolabelled sheep anti-mouse IgG2a
[7] = target: human serum amyloid P component (SAP) (human) (UniProt P02743); assay: IRMA; SAP non-covalently immobilised; antibody at 100 µg/ml; radiolabelled sheep anti-mouse IgG2a
[8] = target: human serum amyloid P component (SAP) (human) (UniProt P02743); assay: IRMA; SAP non-covalently immobilised; antibody at 0.01 µg/ml; radiolabelled sheep anti-mouse IgG2a
[9] = target: human serum amyloid P component (SAP) (human) (UniProt P02743); assay: IRMA; SAP non-covalently immobilised; antibody at 0.001 µg/ml; radiolabelled sheep anti-mouse IgG2a
[10] = target: human SAP complexed with CPHPC and covalently cross linked with BS3 (human) (UniProt P02743); assay: IRMA; SAP-CPHPC complex covalently immobilised; in EDTA; radiolabelled sheep anti-mouse IgG; mean n=3
Sequence of human SAP complexed with CPHPC and covalently cross linked with BS3 (human) (P02743 20-223, one chain of several): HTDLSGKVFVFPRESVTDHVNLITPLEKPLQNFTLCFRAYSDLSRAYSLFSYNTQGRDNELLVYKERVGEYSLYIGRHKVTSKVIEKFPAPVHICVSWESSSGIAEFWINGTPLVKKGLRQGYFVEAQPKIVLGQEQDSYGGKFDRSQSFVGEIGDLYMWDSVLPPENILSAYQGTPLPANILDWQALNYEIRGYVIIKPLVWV

[11] = target: human SAP complexed with CPHPC and covalently cross linked with BS3 (human) (UniProt P02743); assay: IRMA; SAP-CPHPC complex covalently immobilised; in calcium; radiolabelled sheep anti-mouse IgG; mean n=3
[12] = target: human serum amyloid P component (SAP) (human) (UniProt P02743); assay: IRMA; SAP non-covalently immobilised; antibody at 1 µg/ml; radiolabelled sheep polyvalent anti-mouse IgG
[13] = target: human serum amyloid P component (SAP) (human) (UniProt P02743); assay: IRMA; SAP non-covalently immobilised; antibody at 10 µg/ml; radiolabelled sheep polyvalent anti-mouse IgG
[14] = target: human serum amyloid P component (SAP) (human) (UniProt P02743); assay: IRMA; SAP non-covalently immobilised; antibody at 0.1 µg/ml; radiolabelled sheep polyvalent anti-mouse IgG
[15] = target: human serum amyloid P component (SAP) (human) (UniProt P02743); assay: IRMA; SAP non-covalently immobilised; antibody at 100 µg/ml; radiolabelled sheep polyvalent anti-mouse IgG
[16] = target: human serum amyloid P component (SAP) (human) (UniProt P02743); assay: IRMA; SAP non-covalently immobilised; antibody at 0.01 µg/ml; radiolabelled sheep polyvalent anti-mouse IgG
[17] = target: human serum amyloid P component (SAP) (human) (UniProt P02743); assay: IRMA; SAP non-covalently immobilised; antibody at 0.001 µg/ml; radiolabelled sheep polyvalent anti-mouse IgG
[18] = target: human serum amyloid P component (SAP) (human) (UniProt P02743); assay: IRMA; SAP alone captured on immobilised sheep polyclonal anti-human SAP; in calcium; radiolabelled sheep anti-mouse IgG; mean n=3
[19] = target: human SAP complexed with CPHPC and covalently cross linked with BS3 (human) (UniProt P02743); assay: IRMA; SAP-CPHPC complex captured on immobilised sheep polyclonal anti-human SAP; in calcium; radiolabelled sheep anti-mouse IgG; mean n=3

Sequence of human serum amyloid P component (SAP) (human) (P02743 20-223): as the sequence (P02743 20-223, one chain of several) above

koff [1]: 6e-05 s⁻¹ | kon [1]: 20000 M⁻¹ s⁻¹ | Activity bound (d.p.m.) [2]: 4050 d.p.m. | Activity bound (d.p.m.) [3]: 1650 d.p.m. | Activity bound (d.p.m.) [4]: 5580 d.p.m. | Activity bound (d.p.m.) [5]: 1980 d.p.m. | Activity bound (d.p.m.) [6]: 589 d.p.m. | Activity bound (d.p.m.) [7]: 2200 d.p.m. | Activity bound (d.p.m.) [8]: 222 d.p.m. | Activity bound (d.p.m.) [9]: 94 d.p.m. | Activity bound (d.p.m.) [10]: 5140 d.p.m. | Activity bound (d.p.m.) [11]: 6160 d.p.m. | Activity bound (d.p.m.) [12]: 12100 d.p.m. | Activity bound (d.p.m.) [13]: 15400 d.p.m. | Activity bound (d.p.m.) [14]: 4560 d.p.m. | Activity bound (d.p.m.) [15]: 16200 d.p.m. | Activity bound (d.p.m.) [16]: 902 d.p.m. | Activity bound (d.p.m.) [17]: 195 d.p.m. | Activity bound (d.p.m.) [18]: 9310 d.p.m. | Activity bound (d.p.m.) [19]: 7120 d.p.m.
Substance: SAP-5 (antibody)

Source: patent publication US20110166329A1
